Test results from US20070172906A1 (BIOSITE, published 2007).

Biological target: T1, Human latent protein C (Enzyme Research Labs, Catalog # HPC 1001) (human, UniProt P04070 43-197; P04070 200-461)
T1 construct: Bought protein; It was biotinylated for panning and ELISA
Experiment: method not stated

T1 sequence (P04070 43-197, form in doubt, chain 1 of 2): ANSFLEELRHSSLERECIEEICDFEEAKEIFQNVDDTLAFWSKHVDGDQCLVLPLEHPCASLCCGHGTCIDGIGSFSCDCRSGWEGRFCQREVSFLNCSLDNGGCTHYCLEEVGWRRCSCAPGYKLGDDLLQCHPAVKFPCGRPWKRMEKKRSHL
T1 sequence (P04070 200-461, form in doubt, chain 2 of 2): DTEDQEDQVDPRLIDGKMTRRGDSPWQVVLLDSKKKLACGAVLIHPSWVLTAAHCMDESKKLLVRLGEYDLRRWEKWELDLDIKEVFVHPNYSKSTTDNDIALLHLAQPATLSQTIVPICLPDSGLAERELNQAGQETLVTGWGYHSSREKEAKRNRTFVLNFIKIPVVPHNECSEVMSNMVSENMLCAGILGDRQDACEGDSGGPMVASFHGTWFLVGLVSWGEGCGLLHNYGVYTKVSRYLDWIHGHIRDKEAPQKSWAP

| Binder | Ka |
| --- | --- |
| Z1XM01701 (antibody, V domains shown, It was subcloned into a pBR322 expression vector, expressed, purified and biotinylated; also called SE61z1zm-01071) VH: EVMLVESGGGLVKPGGSLKLSCAASGFTFSNYAMSWVRQTPAKRLEWVATISGGGGNTYYPDSVKGRFTISRDNAKNTLYLQMSSLRSEDTALYYCARHPNRFETAVDYWGQGTSVIVSS VL: QIVLTQSPAILSASPGEKVTMTCRASSSVSSVHWYQQKPGSSPKPWIYATSNLASGVPTRFSGGGSGTSYSLTISRVEAEDAATYSCQQWSSDPPTFGGGTKLEIK | ≥ 1e+10 M⁻¹ |
| Z3XM01011 (antibody, V domains shown, Mouse monoclonal antibody from the same Fab phage library after one more round of panning, subcloned into a pBR322 expression vector) VH: EVQLQQSGPGLVEPSQSLSITCTVSGFSLRSYGVHWVRQSPRKGLEWLGGIWSGGRIDYNAAYISRLTINKDNSKSQVFFKMNSLQADDTAIYYCVRKAIDLGDYYGMDYWGQGTSVTVSS VL: DIVMTQFSQILSTSVGDRVSITCKASQDVGTAVAWYQQKPGQSPKLLIYWASTRHTGVPGRFTGSGSGTDFTLTIISVQSEDLADYFCQQYSSYPTFGGGTKLEIK | ≥ 1e+10 M⁻¹ |
